PMC4805542

Test system: ZF6-DB (synthetic construct)
Assay: EMSA
Conditions: 1.5 uM protein, DNA titrated 145-250 nM; apparent Kd, Scatchard; 6.25 mM MgCl2; 25 mM Hepes pH 7.9, 50 mM KCl, 6.25 mM MgCl2, 1% Nonidet P-40, 5% glycerol; 15 min on ice; 5% PAGE in 0.5x TBE at 4 C

hRHO 65 bp duplex oligonucleotide
Kd: 41.9 nM
